Drawing on article PMC5627276, this text covers stoichiometry N for six substances.

Assay [1] concerns the target bRSV F 391-2 DS-Cav1 (bovine respiratory syncytial virus, strain 391-2 | bacteriophage T4). In words: negative stain EM; about 0.01 mg/ml, 10 mM HEPES pH 7.0, 150 mM KCl, 0.75% uranyl formate; reference-free 2D class averaging.
The target is the same in assay [2]. As to the kind of experiment: SEC; after nickel and Strep-Tactin affinity columns and cleavage of the C-terminal affinity tags; SEC in PBS. (In general: Size exclusion chromatography separates by hydrodynamic size, large species first.)
In assay [3] the target is bRSV F ATue51908 DS-Cav1 (bovine respiratory syncytial virus, strain ATue51908 | bacteriophage T4). In words: negative stain EM; about 0.01 mg/ml, 10 mM HEPES pH 7.0, 150 mM KCl, 0.75% uranyl formate; reference-free 2D class averaging.
Assay [4] has the same target. As to the kind of experiment: SEC; after nickel and Strep-Tactin affinity columns and cleavage of the C-terminal affinity tags; SEC in PBS.
Assay [5] concerns the target bRSV F DS2-v1 (391-2 sc9 DS-Cav1 Q98C Q361C) (bovine respiratory syncytial virus, strain 391-2 | bacteriophage T4). In words: negative stain EM; about 0.01 mg/ml, 10 mM HEPES pH 7.0, 150 mM KCl, 0.75% uranyl formate; reference-free 2D class averaging.
The target is the same in assay [6]. As to the kind of experiment: SEC; after nickel and Strep-Tactin affinity columns and cleavage of the C-terminal affinity tags; SEC in PBS.
Assay [7] addresses bRSV F DS2-v33 (391-2 sc9-10 DS-Cav1 Q98C Q361C) (bovine respiratory syncytial virus, strain 391-2 | bacteriophage T4). As to the kind of experiment: negative stain EM; about 0.01 mg/ml, 10 mM HEPES pH 7.0, 150 mM KCl, 0.75% uranyl formate; reference-free 2D class averaging.
Assay [8] has the same target. In words: SEC; after nickel and Strep-Tactin affinity columns and cleavage of the C-terminal affinity tags; SEC in PBS.
The target in assay [9] is bRSV F DS2-v35 (ATue51908 sc9-10 DS-Cav1 A149C Y458C) (bovine respiratory syncytial virus, strain ATue51908 | bacteriophage T4). As to the kind of experiment: negative stain EM; about 0.01 mg/ml, 10 mM HEPES pH 7.0, 150 mM KCl, 0.75% uranyl formate; reference-free 2D class averaging.
The target is the same in assay [10]. In words: SEC; after nickel and Strep-Tactin affinity columns and cleavage of the C-terminal affinity tags; SEC in PBS.
Assay [11] addresses bRSV F RB94 DS-Cav1 (bovine respiratory syncytial virus, strain RB94 | bacteriophage T4). As to the kind of experiment: negative stain EM; about 0.01 mg/ml, 10 mM HEPES pH 7.0, 150 mM KCl, 0.75% uranyl formate; reference-free 2D class averaging.
Assay [12] shares this target. As to the kind of experiment: SEC; after nickel and Strep-Tactin affinity columns and cleavage of the C-terminal affinity tags; SEC in PBS.

For “bRSV F 391-2 DS-Cav1 (domain or fragment)”, the stoichiometry N in [1] and in [2] was 3 in each case.
“bRSV F ATue51908 DS-Cav1 (domain or fragment)”: the stoichiometry N in assay [3] and in assay [4] was 3 in each case.
With “bRSV F DS2-v1 (391-2 sc9 DS-Cav1 Q98C Q361C) (domain or fragment)”, the stoichiometry N in assay [5] and in assay [6] was 3 throughout.
Regarding “bRSV F DS2-v33 (391-2 sc9-10 DS-Cav1 Q98C Q361C) (domain or fragment)”, the stoichiometry N in assay [7] and in [8] was 3 in each case.
Take “bRSV F DS2-v35 (ATue51908 sc9-10 DS-Cav1 A149C Y458C) (domain or fragment)”: the stoichiometry N in [9] and in [10] was 3 each time.
On to “bRSV F RB94 DS-Cav1 (domain or fragment)”, for which the stoichiometry N in assay [11] and in assay [12] was 3 each time.

For orientation: stoichiometry N means a count of units in the complex or per binding partner.
